Experimental findings from article PMC5551564 (The Journal of Experimental Medicine, 2017) are described below.

This assay has as its target T1, human IL-17RE (Thr155-Ser451), soluble form (human, UniProt Q8NFR9 155-451).
T1 sequence (looked up): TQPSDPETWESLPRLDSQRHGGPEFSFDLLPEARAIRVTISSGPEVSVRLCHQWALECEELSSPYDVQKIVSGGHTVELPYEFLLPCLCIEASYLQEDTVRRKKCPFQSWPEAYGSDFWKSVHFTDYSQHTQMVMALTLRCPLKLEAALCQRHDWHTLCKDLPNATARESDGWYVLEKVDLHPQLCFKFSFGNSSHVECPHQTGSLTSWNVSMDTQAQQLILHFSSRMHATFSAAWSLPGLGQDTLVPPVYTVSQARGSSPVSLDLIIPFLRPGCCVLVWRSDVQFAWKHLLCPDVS
As to the kind of experiment: SEC. (In gel filtration, larger molecules generally elute earlier.)

B1: human IL-17c (residues His19-Val197), soluble form (ligand, UniProt Q9P0M4 19-197, looked up)
chain: HHDPSLRGHPHSHGTPHCYSAEELPLGQAPPHLLARGAKWGQALPVALVSSLEAASHRGRHERPSATTQCPVLRPEEVLEADTHQRSISPWRYRVDTDEDRYPQKLAFAECLCRGCIDARTGRETAALNSVRLLQSLLVLRRRPCSRDGSGLPTPGAFAFHTEFIHVPVGCTCVLPRSV
As for B1, the binding result is “binds”.
